Experimental data taken from patent publication US20230000956A1, “COMBINATION THERAPY WITH GLUCARPIDASE WITH METHOTREXATE/RITUXIMAB TO TREAT CNS LYMPHOMA” (MEMORIAL SLOAN KETTERING CANCER CENTER, priority 2019, published 2023).
Entries after “also recorded” stand apart in the source; their conditions may differ. Like-named read-outs stand apart in the source and are kept apart here.

Assays:
[1] = CSF MTX concentrations following glucarpidase (Example 1); type: in vivo, human; conditions: evaluated in two patients
Protocol: (§1) Cerebrospinal fluid (CSF) was collected throughout treatment. Serum was collected for analysis of anti-glucarpidase antibodies. […] Rituximab was always dosed at 500 mg/m^2.

[2] = CSF MTX and glucarpidase (Example 2)
Protocol: Methods. In a phase I dose-finding study of planned-use glucarpidase following HD-MTX, patients were treated with either MTX at 3 g/m^2, 6 g/m^2, or 8 g/m^2. Glucarpidase was dose-reduced to 1000 U or 2000 U and given 24 hours after MTX. […] MTX levels following glucarpidase were determined via mass spectrometry as immunoassay fails to differentiate MTX from byproducts.

[3] = Serum MTX level after outpatient HD-MTX with glucarpidase (Example 3); type: in vivo; conditions: human, intravenous, outpatient MTX 3.5 g/m^2, glucarpidase 2000 U next day, 7 treatments, 3 patients, all cases, read-out: serum MTX levels at 48 hours
[4] = system: CNSL; conditions: cited from earlier work
[5] = cited from earlier work
[6] = cited from earlier work; remark: listed apart in the source
[7] = Serum MTX levels before and after glucarpidase, mass spectrometry (Example 1)
Protocol: (§2) Patients were enrolled into two cohorts with Cohort A receiving MTX 3 g/m^2 and Cohort B receiving MTX 6 g/m^2. Glucarpidase 2000 U or 1000 U was administered 24 hours following the initiation of MTX infusion. […] In the present Example, rituximab was administered on Day 1, MTX on Day 2, glucarpidase Day 3, followed by an 11-day non-treatment period before the start of the next cycle.

[8] = Adverse events (Example 1); parameters: species or system human; conditions: in vivo
From the text: A cycle is typically 14±7 days.

[9] = system: anti-glucarpidase antibodies; assay: Anti-glucarpidase antibodies in serum (Example 1); type: in vivo, human; conditions: two patients, one result per patient
Protocol: as §1

[10] = type: in vivo, human
[11] = parameters: species or system human; conditions: in vivo
[12] = system: anti-glucarpidase antibodies; parameters: species or system human; conditions: in vivo
[13] = in vivo
Protocol: as §2

[14] = target: T1, glucarpidase enzymatic activity (Pseudomonas sp., UniProt P06621); conditions: serum from four of 22 patients with an antibody response; cited from earlier work
T1 sequence (P06621 23-415): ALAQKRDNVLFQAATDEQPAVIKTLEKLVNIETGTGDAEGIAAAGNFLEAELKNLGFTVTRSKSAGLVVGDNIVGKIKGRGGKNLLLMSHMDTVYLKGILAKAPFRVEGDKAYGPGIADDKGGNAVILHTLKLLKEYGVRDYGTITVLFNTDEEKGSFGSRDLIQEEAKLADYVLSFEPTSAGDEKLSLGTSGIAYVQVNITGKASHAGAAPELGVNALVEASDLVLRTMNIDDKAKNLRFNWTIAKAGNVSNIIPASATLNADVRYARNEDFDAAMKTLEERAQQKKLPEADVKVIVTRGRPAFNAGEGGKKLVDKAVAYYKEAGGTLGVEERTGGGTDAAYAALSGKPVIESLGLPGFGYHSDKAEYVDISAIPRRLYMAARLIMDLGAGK

[15] = in vivo; cited from earlier work
[16] = cited from earlier work; remark: listed apart in the source
[17] = system: anti-glucarpidase antibodies; conditions: in vivo; cited from earlier work
[18] = setting of MTX-related acute kidney injury
[19] = around 24 hours after glucarpidase, 8 doses
[20] = typically around 24 hours after glucarpidase

## CN(Cc1cnc2nc(N)nc(N)c2n1)c1ccc(C(=O)N[C@@H](CCC(=O)O)C(=O)O)cc1 [MTX, Methotrexate]
[1]
  CSF methotrexate concentrations following glucarpidase administration: remained therapeutic
[2]; 25 hours following MTX administration (1 hour after glucarpidase)
  MTX concentrations in CSF (potentially cytotoxic): 10^−6 M
[2]; in vivo
  CSF MTX concentrations following glucarpidase (conclusion): remain at cytotoxic levels
[3]
  concentration at 48 h: < 100 nM
[4]; PCNSL, upfront setting
  overall response rates (ORR): up to 74%
[4]; retrospective analysis of 357 patients, regimens with doses 3 g/m^2
  survival benefit: statistically significant survival benefit
[5]; high doses (>1.5 g/m^2) as a rapid infusion
  blood brain barrier penetration: penetrates the blood brain barrier
[5]; in vivo
  share cleared via renal excretion: 70-90%
[6]; HD-MTX
  adults sustaining acute kidney injury: 2-12%
[6]; in vivo
  incidence of systemic toxicities (hepatic injury, pneumonitis, bone marrow suppression): < 10%
[6]; [18]
  patients requiring MTX dose reduction: 14-44%
  patients with premature cessation of therapy: 5-8%
[7]; [19]
  median elevation of MTX (transient increase): 290 nmol/L
  range of elevation of MTX (transient increase): 119 to 516 nmol/L
[7]; in 23/24 doses
  serum MTX levels within 15 minutes of glucarpidase: less than 100 nmol/L
[7]; [20]
  doses followed by transient increase in MTX levels above 100 nmol/L: 8 of 24
  share of doses followed by transient increase in MTX levels above 100 nmol/L: 33%

B1: glucarpidase: recombinant bacterial enzyme that cleaves serum MTX to inactive metabolites (SEQ ID NO: 1) (protein)
chain: T1 sequence (P06621 23-415)
[8]
  adverse events associated with glucarpidase administration: no adverse events associated with glucarpidase administration
[9]
  anti-glucarpidase antibody titer levels: detectable anti-glucarpidase antibodies; also recorded: did not develop any anti-glucarpidase antibodies
[10]; glucarpidase 1000 U (14 treatments) or 2000 U (36 treatments), following 49/50 doses
  reduction in serum MTX levels within 15 minutes: ≥ 95%
[10]; glucarpidase 1000 U or 2000 U
  doses with at least a 95% reduction in serum MTX levels within 15 minutes: 49/50
[10]; in vivo
  decrease in serum MTX levels, remaining dose: 93%
[10]; low-dose glucarpidase
  efficacy after repeated doses and antibody formation: remains effective even after repeated doses and despite the formation of anti-glucarpidase antibodies
  reduction of MTX levels (conclusion): > 95%
[2]; in vivo
  glucarpidase in the CSF: not detected
[11]
  grade 3 events: no grade 3 events
  grade 4 events: only one grade 4 anaphylactic reaction
[12]
  patients with anti-glucarpidase antibodies detected: 6 of 8
[13]
  decrease in serum MTX levels, remaining dose: 93%
[14]
  inhibition of glucarpidase enzymatic activity in vitro by patient serum: 28-58%
[15]
  half-life: 6 to 9 h
  volume of distribution: 3.6 L
[16]; 50 units/kg, patients with delayed MTX elimination from renal impairment
  safety and efficacy at approved dose: safe and efficacious
[16]; in vivo
  patients reporting nausea, vomiting, hypotension, paresthesias, flushing, and headache: < 3%
[17]
  antibody formation post glucarpidase: 37-43%
  patients developing antibodies: roughly 17%
[7]; glucarpidase 2000 U or 1000 U
  doses with at least a 95% reduction in serum MTX levels within 15 minutes: 23/24
  share of doses with at least a 95% reduction in serum MTX levels within 15 minutes: 96%
[7]; glucarpidase 2000 U or 1000 U 24 h after MTX 3 or 6 g/m^2, in 23/24 doses
  reduction in serum MTX levels within 15 minutes of administration: ≥ 95%
[7]; low-dose glucarpidase 24 hours after MTX
  effect on serum MTX levels (summary): rapid reduction in serum MTX levels
